The results in this text go back to the DeepSol protein solubility set.

The nature of this data set: soluble on expression in E. coli; label from the status in PepcDB or PDB records.
As to “MRERKKYGKHIPKSLSSKINKRKLIQKNICTNYKTIKIIDIYENLPYNQLNNGRTKIKEIILANDVLVVLLISGISRAYNMINGEFLCEINPNNFSVVHTIVYNSYNNTLIIAYASFPAHLQCKVIDCNDLKHGITNSSKLGILFGT”, the “soluble on expression in E. coli” value is “not soluble”.
With “MRFGEGSAKPIVSAATYGVGGNAFAQAIADPVSTVHSNKPELLVVDGYNVIHCTPRYEKLVYDHSDDPYSSDVHDMARTALINDVAAFAQGRYEAVIVFDGAGNISSERPNLPARGVRIEFSPTGVSADTVVQKLCIEAREEGRACSVVSSDGTIQAVVMGKGVTRISSRMLVDEIKQIDNDVHEAEEAPQIKMTLEHHHHHH” the entry was “soluble”; with “MRFLTAGESHGPELLAIIEGLPAGLPLSEEDINPWLEKRQKGYGRGRRMVIERDRVEFRAGVRGGRTTGAPVALAIKNADFKNWAEIMDPAPGNWPRKRALTAARPGHADLAGGMKYGHKDLRDVLERASARETAMRVAVGAVALKLLSLLGVEGVGYVPGMAGVWAKVPFSWDLVPRIEESPLRMTDPEAEAEAIRRIDQAKAEGDTLGGIIEARFRGLVPGLGSHVHWDRKLDGRLAQMALSIPAVKGVEIGPAFENAMKRGSEVHDAIYWSPERGFYRKTNRAGGLEGGMTTGEELVVRAALKPIATLMKPLPTVDVVTHEPKDAARERSDTTAVPAASVILCALSAIVLAQAYLEKFGGDTMEEIQERVERYRERVRAY”, “soluble”.
Next, “MRGEKRTFEMLTNEVEYQHYRFSFANNPATAAGIFQLAEIELTVVADAPLVDFASNISRAEIGENVQFWDRSLANPTGWQWTFEDGEPATSTNRNPAVTFTSLGAKSVTLVASNDKGSNEKVQEQVVHIWDSQNPWAGYVKPTVTLVAHKPEHEGQIAFSRVMPDIEAVIHDISLQIVKVLYKDVAEAPLFKTVTFETDEYDFPAAKSGTDEDMILMMDVAHLANKAAEGDDALRDEVIGMLWHELTHGYNNSPNSGEYATGDEYHSYLESLANYMRIKAGFHESRRVGIKWVDNWNVDAYEQTSFFLEWVANSHRSVDFIYLFNKAAGDLKEWSFEAAFKSIFGEDKGVSIFWQEYHDAQGIEPPYPTPVDGYRNFAVDEGVSISTNATTVIIPDWDAYEGEDKLIDNNVTKKFNAFIEGTWWLEEHASHLFPINDITNVEVTFELPDAIVLHKYSVTTGNDNPQRDPTLWTISGSVDGEVWTQLDSDNYPSDPERLITFHYDIDDAVTAYKYYQFVFENTQPAGDSIGGDNGRLVQIGEIALLTEELEHHHHHH”: “not soluble”; “MRGRQKIAIVGAGLGGAAAATLLQQAGFDVEVFEQAPAFTRLGAGIHIGPNVMKIFRRMGLEQKLELMGSHPDFWFSRDGNTGDYLSRIPLGEFARREYGAAYITIHRGDLHALQIEAIQPGTVHFGKRLEKIVDEGDQVRLDFADGTHTVADIVIGADGIHSKIREELLGAEAPIYSGWVAHRALIRGVNLAQHADVFEPCVKWWSEDRHMMVYYTTGKRDEYYFVTGVPHEAWDFQGAFVDSSQEEMRAAFEGYHPTVQKLIDATESITKWPLRNRNPLPLWSRGRLVLLGDACHPMKPHMAQGACMAIEDAAMLTRCLQETGLSDHRTAFALYEANRKERASQVQSVSNANTWLYSQEDPAWVYGYDLYGQQLESGEAALEHHHHHH”: “soluble”; “MRGSHHHHHHGIRMRARYPAFSVNYDSSFGGYSIHDYLGQWASTFGDVNHTNGNVTDANSGGFYGGSLSGSQYAISSTANQVTAFVAGGNLTYTLFNEPAHTLYGQLDSLSFGDGLSGGDTSPYSIQVPDVSFGGLNLSSLQAQGHDGVVHQVVYGLMSGDTGALETALNGILDDYGLSVNSTFDQVAAATAVGVQHADSPELLAA”: “soluble”.
With “MRGSHHHHHHGMTIFEKKPDFTLFLQTLSWEIDDQVGIEVRNELLREVGRGMGTRIMPPPCQTVDKLQIELNALLALIGWGTVTLELLSEDQSLRIVHENLPQVGSAGEPSGTWLAPVLEGLYGRWVTSQAGAFGDYVVTRDVDAEDLNAVPRQTIIMYMRVRSSAT” the entry was “soluble”; with “MRGSHHHHHHGSDLGKKLLEAARAGQDDEVRILIANGADVNAVDNTGLTPLHLAAVSGHLEIVEVLLKHGADVDAADVYGFTPLHLAAMTGHLEIVEVLLKYGADVNAFDMTGSTPLHLAADEGHLEIVEVLLKYGADVNAQDKFGKTAFDISIDNGNEDLAKSCRN”, “soluble”.
